A word on the stoichiometry N: it is the number of molecules, sites or subunits per partner or assembly.

This assay concerns the target SlCGH1, choloylglycine hydrolase homolog Shew_0681 from Shewanella loihica PV-4 (Shewanella loihica PV-4). As to the kind of experiment: SEC + other: MALDI-TOF-MS.

Turning to “SlCGH1, choloylglycine hydrolase homolog Shew_0681 from Shewanella loihica PV-4 (enzyme)”, the stoichiometry N worked out at 2.

(Values after article doi:10.1101/788646.)
